{
  "source": "patent US20140087995A1",
  "about": "(published 2014)",
  "binders": {"B1": {"name": "N^-1-[(4S)-4-carboxy-4-(19-carboxynonadecanoylamino)butanoyl]-Gly[Arg1,Arg17,Pro21,Pro27]-h-amylin (peptide)", "peptide": "{C20 diacid-γGlu}-GRCNTATCATQRLANFLRHSSPNFGAIPSSTNVGSNTY-NH2", "modifications": "disulfide 3-8", "SMILES": "CC[C@H](C)[C@H](NC(=O)[C@H](C)NC(=O)CNC(=O)[C@H](Cc1ccccc1)NC(=O)[C@H](CC(N)=O)NC(=O)[C@@H]1CCCN1C(=O)[C@H](CO)NC(=O)[C@H](CO)NC(=O)[C@H](Cc1c[nH]cn1)NC(=O)[C@H](CCCNC(=N)N)NC(=O)[C@H](CC(C)C)NC(=O)[C@H](Cc1ccccc1)NC(=O)[C@H](CC(N)=O)NC(=O)[C@H](C)NC(=O)[C@H](CC(C)C)NC(=O)[C@H](CCCNC(=N)N)NC(=O)[C@H](CCC(N)=O)NC(=O)[C@@H](NC(=O)[C@H](C)NC(=O)[C@@H]1CSSC[C@H](NC(=O)[C@H](CCCNC(=N)N)NC(=O)CNC(=O)CC[C@H](NC(=O)CCCCCCCCCCCCCCCCCCC(=O)O)C(=O)O)C(=O)N[C@@H](CC(N)=O)C(=O)N[C@@H]([C@@H](C)O)C(=O)N[C@@H](C)C(=O)N[C@@H]([C@@H](C)O)C(=O)N1)[C@@H](C)O)C(=O)N1CCC[C@H]1C(=O)N[C@@H](CO)C(=O)N[C@@H](CO)C(=O)N[C@H](C(=O)N[C@@H](CC(N)=O)C(=O)N[C@H](C(=O)NCC(=O)N[C@@H](CO)C(=O)N[C@@H](CC(N)=O)C(=O)N[C@H](C(=O)N[C@@H](Cc1ccc(O)cc1)C(N)=O)[C@@H](C)O)C(C)C)[C@@H](C)O", "notes": "also called compound 46"}, "B2": {"name": "N^-1-[(4S)-4-carboxy-4-(19-carboxynonadecanoylamino)butanoyl]-Gly[Arg1,Ala14,Arg17,Pro21,Pro27,His34]-h-amylin (peptide)", "peptide": "{C20 diacid-γGlu}-GRCNTATCATQRLAAFLRHSSPNFGAIPSSTNVGHNTY-NH2", "modifications": "disulfide 3-8", "SMILES": "CC[C@H](C)[C@H](NC(=O)[C@H](C)NC(=O)CNC(=O)[C@H](Cc1ccccc1)NC(=O)[C@H](CC(N)=O)NC(=O)[C@@H]1CCCN1C(=O)[C@H](CO)NC(=O)[C@H](CO)NC(=O)[C@H](Cc1c[nH]cn1)NC(=O)[C@H](CCCNC(=N)N)NC(=O)[C@H](CC(C)C)NC(=O)[C@H](Cc1ccccc1)NC(=O)[C@H](C)NC(=O)[C@H](C)NC(=O)[C@H](CC(C)C)NC(=O)[C@H](CCCNC(=N)N)NC(=O)[C@H](CCC(N)=O)NC(=O)[C@@H](NC(=O)[C@H](C)NC(=O)[C@@H]1CSSC[C@H](NC(=O)[C@H](CCCNC(=N)N)NC(=O)CNC(=O)CC[C@H](NC(=O)CCCCCCCCCCCCCCCCCCC(=O)O)C(=O)O)C(=O)N[C@@H](CC(N)=O)C(=O)N[C@@H]([C@@H](C)O)C(=O)N[C@@H](C)C(=O)N[C@@H]([C@@H](C)O)C(=O)N1)[C@@H](C)O)C(=O)N1CCC[C@H]1C(=O)N[C@@H](CO)C(=O)N[C@@H](CO)C(=O)N[C@H](C(=O)N[C@@H](CC(N)=O)C(=O)N[C@H](C(=O)NCC(=O)N[C@@H](Cc1c[nH]cn1)C(=O)N[C@@H](CC(N)=O)C(=O)N[C@H](C(=O)N[C@@H](Cc1ccc(O)cc1)C(N)=O)[C@@H](C)O)C(C)C)[C@@H](C)O"}, "B3": {"name": "N^-1-[(4S)-4-carboxy-4-(19-carboxynonadecanoylamino)butanoyl]-Gly[Arg1,His14,Arg17,Pro21,Pro27,Pro34]-h-amylin (peptide)", "peptide": "{C20 diacid-γGlu}-GRCNTATCATQRLAHFLRHSSPNFGAIPSSTNVGPNTY-NH2", "modifications": "disulfide 3-8", "SMILES": "CC[C@H](C)[C@H](NC(=O)[C@H](C)NC(=O)CNC(=O)[C@H](Cc1ccccc1)NC(=O)[C@H](CC(N)=O)NC(=O)[C@@H]1CCCN1C(=O)[C@H](CO)NC(=O)[C@H](CO)NC(=O)[C@H](Cc1c[nH]cn1)NC(=O)[C@H](CCCNC(=N)N)NC(=O)[C@H](CC(C)C)NC(=O)[C@H](Cc1ccccc1)NC(=O)[C@H](Cc1c[nH]cn1)NC(=O)[C@H](C)NC(=O)[C@H](CC(C)C)NC(=O)[C@H](CCCNC(=N)N)NC(=O)[C@H](CCC(N)=O)NC(=O)[C@@H](NC(=O)[C@H](C)NC(=O)[C@@H]1CSSC[C@H](NC(=O)[C@H](CCCNC(=N)N)NC(=O)CNC(=O)CC[C@H](NC(=O)CCCCCCCCCCCCCCCCCCC(=O)O)C(=O)O)C(=O)N[C@@H](CC(N)=O)C(=O)N[C@@H]([C@@H](C)O)C(=O)N[C@@H](C)C(=O)N[C@@H]([C@@H](C)O)C(=O)N1)[C@@H](C)O)C(=O)N1CCC[C@H]1C(=O)N[C@@H](CO)C(=O)N[C@@H](CO)C(=O)N[C@H](C(=O)N[C@@H](CC(N)=O)C(=O)N[C@H](C(=O)NCC(=O)N1CCC[C@H]1C(=O)N[C@@H](CC(N)=O)C(=O)N[C@H](C(=O)N[C@@H](Cc1ccc(O)cc1)C(N)=O)[C@@H](C)O)C(C)C)[C@@H](C)O"}, "B4": {"name": "N^-1-[(4S)-4-carboxy-4-(19-carboxynonadecanoylamino)butanoyl]-Gly[Arg1,Ala14,Arg17,Pro21,Pro27,Pro34]-h-amylin (peptide)", "peptide": "{C20 diacid-γGlu}-GRCNTATCATQRLAAFLRHSSPNFGAIPSSTNVGPNTY-NH2", "modifications": "disulfide 3-8"}, "B5": {"name": "N^ε-[2-[2-[2-[[(4S)-4-carboxy-4-(19-carboxynonadecanoylamino)butanoyl]amino]ethoxy]ethoxy]acetyl]Lys[Arg1,Arg17,Pro21,Pro27,His35]-h-amylin (peptide)", "peptide": "K([AEEA-γGlu-C20 diacid])RCNTATCATQRLANFLRHSSPNFGAIPSSTNVGSHTY-NH2", "modifications": "disulfide 3-8; N-terminus assumed", "SMILES": "CC[C@H](C)[C@H](NC(=O)[C@H](C)NC(=O)CNC(=O)[C@H](Cc1ccccc1)NC(=O)[C@H](CC(N)=O)NC(=O)[C@@H]1CCCN1C(=O)[C@H](CO)NC(=O)[C@H](CO)NC(=O)[C@H](Cc1c[nH]cn1)NC(=O)[C@H](CCCNC(=N)N)NC(=O)[C@H](CC(C)C)NC(=O)[C@H](Cc1ccccc1)NC(=O)[C@H](CC(N)=O)NC(=O)[C@H](C)NC(=O)[C@H](CC(C)C)NC(=O)[C@H](CCCNC(=N)N)NC(=O)[C@H](CCC(N)=O)NC(=O)[C@@H](NC(=O)[C@H](C)NC(=O)[C@@H]1CSSC[C@H](NC(=O)[C@H](CCCNC(=N)N)NC(=O)[C@@H](N)CCCCNC(=O)COCCOCCNC(=O)CC[C@H](NC(=O)CCCCCCCCCCCCCCCCCCC(=O)O)C(=O)O)C(=O)N[C@@H](CC(N)=O)C(=O)N[C@@H]([C@@H](C)O)C(=O)N[C@@H](C)C(=O)N[C@@H]([C@@H](C)O)C(=O)N1)[C@@H](C)O)C(=O)N1CCC[C@H]1C(=O)N[C@@H](CO)C(=O)N[C@@H](CO)C(=O)N[C@H](C(=O)N[C@@H](CC(N)=O)C(=O)N[C@H](C(=O)NCC(=O)N[C@@H](CO)C(=O)N[C@@H](Cc1c[nH]cn1)C(=O)N[C@H](C(=O)N[C@@H](Cc1ccc(O)cc1)C(N)=O)[C@@H](C)O)C(C)C)[C@@H](C)O", "notes": "also called compound 45"}, "B6": {"name": "N^ε-[(4S)-4-carboxy-4-(19-carboxynonadecanoylamino)butanoyl]Lys[Arg1,Arg17,Pro21,Pro27,His35]-h-amylin (peptide)", "peptide": "K([γGlu-C20 diacid])RCNTATCATQRLANFLRHSSPNFGAIPSSTNVGSHTY-NH2", "modifications": "disulfide 3-8; N-terminus assumed", "SMILES": "CC[C@H](C)[C@H](NC(=O)[C@H](C)NC(=O)CNC(=O)[C@H](Cc1ccccc1)NC(=O)[C@H](CC(N)=O)NC(=O)[C@@H]1CCCN1C(=O)[C@H](CO)NC(=O)[C@H](CO)NC(=O)[C@H](Cc1c[nH]cn1)NC(=O)[C@H](CCCNC(=N)N)NC(=O)[C@H](CC(C)C)NC(=O)[C@H](Cc1ccccc1)NC(=O)[C@H](CC(N)=O)NC(=O)[C@H](C)NC(=O)[C@H](CC(C)C)NC(=O)[C@H](CCCNC(=N)N)NC(=O)[C@H](CCC(N)=O)NC(=O)[C@@H](NC(=O)[C@H](C)NC(=O)[C@@H]1CSSC[C@H](NC(=O)[C@H](CCCNC(=N)N)NC(=O)[C@@H](N)CCCCNC(=O)CC[C@H](NC(=O)CCCCCCCCCCCCCCCCCCC(=O)O)C(=O)O)C(=O)N[C@@H](CC(N)=O)C(=O)N[C@@H]([C@@H](C)O)C(=O)N[C@@H](C)C(=O)N[C@@H]([C@@H](C)O)C(=O)N1)[C@@H](C)O)C(=O)N1CCC[C@H]1C(=O)N[C@@H](CO)C(=O)N[C@@H](CO)C(=O)N[C@H](C(=O)N[C@@H](CC(N)=O)C(=O)N[C@H](C(=O)NCC(=O)N[C@@H](CO)C(=O)N[C@@H](Cc1c[nH]cn1)C(=O)N[C@H](C(=O)N[C@@H](Cc1ccc(O)cc1)C(N)=O)[C@@H](C)O)C(C)C)[C@@H](C)O", "notes": "also called compound 44"}},
  "note": "Numbered stars: 1 amine (or outer) side, 2 acyl side, 3 side chain; on linkers, the order of the positions; unused ones are H or OH. Bridge positions count the residues as written; N and C are the ends. Side chains are listed from the residue outwards. Ends that are not written are not given here. * marks the point of attachment. C20 diacid = O=C(O)CCCCCCCCCCCCCCCCCCC(=O)*; γGlu = O=C(O)[C@H](CCC(=O)[*:2])N[*:1]; AEEA = NCCOCCOCC(=O)O",
  "data": [
    {"biological_target": "T1, human amylin receptor (human, UniProt P30988 25-474; O60896 24-148, limits assumed)", "T1 construct": "whole, on cells; Used as cell membranes prepared from the Amylin 3(a)/CRE-luc BHK cells (Assay V); also called hAmylin-R; hAmylinR", "T1 sequence (looked up) 1": "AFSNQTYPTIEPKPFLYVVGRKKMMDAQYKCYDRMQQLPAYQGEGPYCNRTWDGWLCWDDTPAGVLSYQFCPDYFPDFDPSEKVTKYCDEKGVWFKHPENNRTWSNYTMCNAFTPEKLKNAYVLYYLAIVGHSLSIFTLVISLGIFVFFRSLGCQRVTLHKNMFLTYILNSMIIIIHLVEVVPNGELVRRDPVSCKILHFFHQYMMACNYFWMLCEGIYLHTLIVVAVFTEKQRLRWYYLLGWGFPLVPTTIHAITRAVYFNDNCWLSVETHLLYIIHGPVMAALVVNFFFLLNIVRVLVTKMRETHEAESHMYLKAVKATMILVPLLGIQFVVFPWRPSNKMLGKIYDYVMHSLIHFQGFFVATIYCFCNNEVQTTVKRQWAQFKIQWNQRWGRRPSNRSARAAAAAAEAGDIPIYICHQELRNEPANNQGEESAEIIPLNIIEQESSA", "T1 sequence (looked up) 2": "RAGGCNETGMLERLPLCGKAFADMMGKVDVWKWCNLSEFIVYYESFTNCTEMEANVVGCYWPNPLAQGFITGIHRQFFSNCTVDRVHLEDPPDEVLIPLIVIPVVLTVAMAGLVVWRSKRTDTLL", "assay": "SPA competition vs 125I-rat amylin, membranes of amylin 3(a) receptor BHK cells (Assay V)", "method_in_brief": "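One-site competition analysis of SPA counts yielded IC₅₀ as a measure of affinity. Membranes were at 35 ng/μL final; incubation was 120 min at 25° C, pH 7.4.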", "units": {"IC50": "nM"}, "values": [
      {"binder": "B1", "IC50": 0.195},
      {"binder": "B2", "IC50": 0.426},
      {"binder": "B3", "IC50": 0.217},
      {"binder": "B4", "IC50": 0.114},
      {"binder": "B5", "IC50": 0.552},
      {"binder": "B6", "IC50": 0.275}
    ]}
  ]
}
